Reference: patent US20130315910A1 (Xencor, published 2013)
Residue numbers refer to the chain shown, from its start. Numbers in names are those of the source.

T1: mFcγRIIb (Mus musculus, UniProt P08101)
T1 construct: extracellular region, C-terminal His- and GST-tag; also called mouse FcγRII
T1 sequence (receptor extracellular region, looked up): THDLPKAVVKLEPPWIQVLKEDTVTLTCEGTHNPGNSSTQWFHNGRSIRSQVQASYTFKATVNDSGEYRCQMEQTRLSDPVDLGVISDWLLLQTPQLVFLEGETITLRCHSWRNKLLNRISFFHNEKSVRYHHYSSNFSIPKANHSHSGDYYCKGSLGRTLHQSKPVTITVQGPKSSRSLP

T2: cynoFcγRIIb (Macaca fascicularis, UniProt A0A140HDP4)
T2 construct: extracellular region, C-terminal His- and GST-tag; also called cynomolgus monkey FcγRIIb
T2 sequence (receptor extracellular region): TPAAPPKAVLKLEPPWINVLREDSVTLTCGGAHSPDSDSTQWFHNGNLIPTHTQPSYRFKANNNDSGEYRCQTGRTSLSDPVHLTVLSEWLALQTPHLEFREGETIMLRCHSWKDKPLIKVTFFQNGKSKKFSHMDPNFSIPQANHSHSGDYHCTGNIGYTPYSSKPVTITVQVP

T3: mFcγRIV
T3 construct: also called mouse FcγRIV; not shown: C-terminal His and GST tags (named only on our card)
T3 chain: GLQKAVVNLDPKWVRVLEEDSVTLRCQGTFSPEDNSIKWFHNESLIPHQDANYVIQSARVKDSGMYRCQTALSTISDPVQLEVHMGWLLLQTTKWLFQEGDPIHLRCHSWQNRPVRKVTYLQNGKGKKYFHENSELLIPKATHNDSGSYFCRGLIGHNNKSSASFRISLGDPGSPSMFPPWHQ

T4: human FcγRIIa (131R), His- and GST-tagged (human, UniProt P12318 34-217)
T4 construct: Expressed in HEK293T cells, purified by nickel chromatography; also called R131 FcγRIIa; not shown: 6xHis and GST tags of the pTT5 vector
T4 sequence (looked up): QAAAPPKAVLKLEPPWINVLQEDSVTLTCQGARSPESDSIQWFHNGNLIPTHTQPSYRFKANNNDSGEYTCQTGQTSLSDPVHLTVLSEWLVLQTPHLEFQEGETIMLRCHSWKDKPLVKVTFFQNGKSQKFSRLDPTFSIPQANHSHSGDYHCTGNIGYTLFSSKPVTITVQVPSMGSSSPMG

T5: human FcγRIIb receptor protein (R&D Systems) (human, UniProt P31994 46-217)
T5 construct: Bought protein injected over captured antibody in Biacore; also called CD32b
T5 sequence (looked up): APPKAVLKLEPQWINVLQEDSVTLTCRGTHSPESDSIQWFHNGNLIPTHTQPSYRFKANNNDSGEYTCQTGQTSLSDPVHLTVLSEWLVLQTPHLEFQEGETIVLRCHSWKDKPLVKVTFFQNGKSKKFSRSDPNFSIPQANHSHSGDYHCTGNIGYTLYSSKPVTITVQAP

T6: human FcγRIIa (131H), His- and GST-tagged (human, UniProt P12318 34-217)
T6 construct: also called H131 FcγRIIa; HIIa; not shown: 6xHis and GST tags of the pTT5 vector
T6 sequence (looked up): T4 sequence (looked up) with R134H

B1: A327D (antibody, human IgG1, kappa)
heavy: not shown
light: DIVMTQSPATLSLSPGERATLSCRSSKSLQNVNGNTYLYWFQQKPGQSPQLLIYRMSNLNSGVPDRFSGSGSGTEFTLTISSLEPEDFAVYYCMQHLEYPITFGAGTKLEIKRTVAAPSVFIFPPSDEQLKSGTASVVCLLNNFYPREAKVQWKVDNALQSGNSQESVTEQDSKDSTYSLSSTLTLSKADYEKHKVYACEVTHQGLSSPVTKSFNRGEC
notes: HuAM4G7 anti-CD19 IgG1 (m1) with this Fc substitution, EU index; copies: 2 + 2
B2: H268D (antibody, human IgG1, kappa)
heavy: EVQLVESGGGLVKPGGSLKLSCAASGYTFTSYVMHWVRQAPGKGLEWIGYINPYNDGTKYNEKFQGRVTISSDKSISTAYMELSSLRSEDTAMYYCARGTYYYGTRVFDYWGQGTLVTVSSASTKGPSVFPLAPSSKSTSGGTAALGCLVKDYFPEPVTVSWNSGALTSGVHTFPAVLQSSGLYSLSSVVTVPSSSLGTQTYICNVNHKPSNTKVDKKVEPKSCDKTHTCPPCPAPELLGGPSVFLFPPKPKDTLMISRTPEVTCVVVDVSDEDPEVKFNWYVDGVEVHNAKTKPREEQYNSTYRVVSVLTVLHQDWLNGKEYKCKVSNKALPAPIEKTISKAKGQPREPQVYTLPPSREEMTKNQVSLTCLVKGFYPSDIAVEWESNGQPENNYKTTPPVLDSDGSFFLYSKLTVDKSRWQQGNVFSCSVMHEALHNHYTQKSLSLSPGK
light: B1 light
notes: as for B1
B3: S267E/L328I (antibody, human IgG1, kappa)
heavy: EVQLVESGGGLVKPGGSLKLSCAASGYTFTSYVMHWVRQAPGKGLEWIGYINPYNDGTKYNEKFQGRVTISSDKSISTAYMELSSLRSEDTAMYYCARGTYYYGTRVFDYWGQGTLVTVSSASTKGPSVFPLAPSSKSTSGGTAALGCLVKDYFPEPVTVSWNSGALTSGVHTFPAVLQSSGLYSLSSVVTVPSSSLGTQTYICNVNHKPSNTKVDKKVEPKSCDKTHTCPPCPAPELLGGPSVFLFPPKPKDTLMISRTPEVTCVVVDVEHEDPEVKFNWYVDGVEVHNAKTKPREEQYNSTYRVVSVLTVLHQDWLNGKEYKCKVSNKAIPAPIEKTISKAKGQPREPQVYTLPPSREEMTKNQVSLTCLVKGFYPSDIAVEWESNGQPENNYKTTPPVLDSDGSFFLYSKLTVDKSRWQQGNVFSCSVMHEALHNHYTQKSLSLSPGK
light: B1 light
notes: HuAM4G7 anti-CD19 IgG1 (m1) with these Fc substitutions, EU index; copies: 2 + 2
B4: D265E (antibody, human IgG1, kappa)
heavy: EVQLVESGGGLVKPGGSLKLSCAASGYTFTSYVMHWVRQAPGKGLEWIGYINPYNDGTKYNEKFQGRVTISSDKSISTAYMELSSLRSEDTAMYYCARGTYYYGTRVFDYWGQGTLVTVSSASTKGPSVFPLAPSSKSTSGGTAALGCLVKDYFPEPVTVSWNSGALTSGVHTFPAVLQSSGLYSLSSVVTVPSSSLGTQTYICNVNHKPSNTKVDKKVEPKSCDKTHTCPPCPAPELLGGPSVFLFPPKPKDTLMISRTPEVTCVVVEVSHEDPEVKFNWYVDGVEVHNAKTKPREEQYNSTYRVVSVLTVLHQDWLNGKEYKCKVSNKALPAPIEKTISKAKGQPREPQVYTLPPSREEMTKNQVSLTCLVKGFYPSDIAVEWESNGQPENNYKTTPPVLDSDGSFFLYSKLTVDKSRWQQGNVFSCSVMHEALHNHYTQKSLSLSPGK
light: B1 light
notes: as for B1
B5: S298Q (antibody, human IgG1, kappa)
heavy: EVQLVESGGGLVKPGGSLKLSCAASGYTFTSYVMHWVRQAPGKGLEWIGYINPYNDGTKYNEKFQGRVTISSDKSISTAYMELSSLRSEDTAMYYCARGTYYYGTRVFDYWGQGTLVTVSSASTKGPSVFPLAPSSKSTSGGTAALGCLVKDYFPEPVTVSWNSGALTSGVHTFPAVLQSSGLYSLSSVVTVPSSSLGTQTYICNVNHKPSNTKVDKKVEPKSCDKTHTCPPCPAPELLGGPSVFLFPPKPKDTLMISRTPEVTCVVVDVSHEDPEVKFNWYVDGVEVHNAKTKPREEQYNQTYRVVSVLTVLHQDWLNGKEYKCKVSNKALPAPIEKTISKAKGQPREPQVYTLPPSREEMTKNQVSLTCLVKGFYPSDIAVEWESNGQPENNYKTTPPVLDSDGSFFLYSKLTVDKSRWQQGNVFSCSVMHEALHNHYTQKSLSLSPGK
light: B1 light
notes: as for B1
B6: V266I (antibody, human IgG1, kappa)
heavy: not shown
light: B1 light
notes: as for B1
B7: S267E/L328Q (antibody, human IgG1, kappa)
heavy: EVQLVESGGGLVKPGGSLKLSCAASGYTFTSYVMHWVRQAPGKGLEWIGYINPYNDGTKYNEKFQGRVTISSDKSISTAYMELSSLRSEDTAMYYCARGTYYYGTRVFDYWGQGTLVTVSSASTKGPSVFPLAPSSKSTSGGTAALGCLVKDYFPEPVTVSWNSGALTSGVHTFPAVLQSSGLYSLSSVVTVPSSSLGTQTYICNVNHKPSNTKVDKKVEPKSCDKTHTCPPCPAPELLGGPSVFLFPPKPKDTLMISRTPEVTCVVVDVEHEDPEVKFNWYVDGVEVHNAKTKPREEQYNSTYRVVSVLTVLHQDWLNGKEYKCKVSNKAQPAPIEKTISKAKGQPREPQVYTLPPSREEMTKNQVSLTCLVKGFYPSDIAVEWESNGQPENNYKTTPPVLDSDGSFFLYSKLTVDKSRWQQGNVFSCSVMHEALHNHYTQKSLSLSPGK
light: B1 light
notes: as for B3
B8: H268Q (antibody, human IgG1, kappa)
heavy: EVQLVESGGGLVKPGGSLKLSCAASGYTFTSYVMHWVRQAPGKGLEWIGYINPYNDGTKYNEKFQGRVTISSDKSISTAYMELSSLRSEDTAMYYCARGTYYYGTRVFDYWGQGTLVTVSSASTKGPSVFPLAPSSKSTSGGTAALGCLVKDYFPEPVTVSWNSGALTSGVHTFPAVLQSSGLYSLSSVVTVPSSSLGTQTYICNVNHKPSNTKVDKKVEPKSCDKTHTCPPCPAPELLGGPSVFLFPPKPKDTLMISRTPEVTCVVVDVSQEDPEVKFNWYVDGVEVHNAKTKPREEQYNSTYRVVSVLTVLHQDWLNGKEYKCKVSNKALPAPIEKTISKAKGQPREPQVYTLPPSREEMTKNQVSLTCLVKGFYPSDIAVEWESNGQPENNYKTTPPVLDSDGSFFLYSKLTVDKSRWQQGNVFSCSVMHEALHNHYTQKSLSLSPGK
light: B1 light
notes: as for B1
B9: S239Q (antibody, human IgG1, kappa)
heavy: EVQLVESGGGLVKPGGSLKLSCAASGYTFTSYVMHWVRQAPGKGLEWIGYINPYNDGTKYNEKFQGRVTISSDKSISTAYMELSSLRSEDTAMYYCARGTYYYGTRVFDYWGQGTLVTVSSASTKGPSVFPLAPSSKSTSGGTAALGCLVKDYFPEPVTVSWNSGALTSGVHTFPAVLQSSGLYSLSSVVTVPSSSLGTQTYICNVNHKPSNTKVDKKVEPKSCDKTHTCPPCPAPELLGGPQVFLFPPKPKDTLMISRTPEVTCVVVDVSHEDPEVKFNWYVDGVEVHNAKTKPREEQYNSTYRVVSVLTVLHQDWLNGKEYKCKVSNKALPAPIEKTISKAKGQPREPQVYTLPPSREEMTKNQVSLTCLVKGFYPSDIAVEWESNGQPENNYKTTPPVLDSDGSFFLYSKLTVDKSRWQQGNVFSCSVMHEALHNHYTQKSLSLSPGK
light: B1 light
notes: as for B1
B10: S267D/H268D (antibody, human IgG1, kappa)
heavy: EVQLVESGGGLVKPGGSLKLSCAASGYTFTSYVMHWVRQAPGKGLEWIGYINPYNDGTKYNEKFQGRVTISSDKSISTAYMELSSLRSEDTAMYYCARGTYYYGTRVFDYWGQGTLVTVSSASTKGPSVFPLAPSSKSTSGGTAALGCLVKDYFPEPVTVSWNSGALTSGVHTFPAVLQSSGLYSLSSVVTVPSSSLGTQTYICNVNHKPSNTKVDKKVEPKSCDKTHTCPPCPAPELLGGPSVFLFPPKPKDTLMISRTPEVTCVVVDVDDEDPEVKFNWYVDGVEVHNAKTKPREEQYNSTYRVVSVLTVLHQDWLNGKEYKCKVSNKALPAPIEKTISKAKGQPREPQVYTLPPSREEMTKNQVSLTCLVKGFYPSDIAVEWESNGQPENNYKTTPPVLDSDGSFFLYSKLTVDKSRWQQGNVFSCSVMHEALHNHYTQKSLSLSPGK
light: B1 light
notes: as for B3
B11: A327G (antibody, human IgG1, kappa)
heavy: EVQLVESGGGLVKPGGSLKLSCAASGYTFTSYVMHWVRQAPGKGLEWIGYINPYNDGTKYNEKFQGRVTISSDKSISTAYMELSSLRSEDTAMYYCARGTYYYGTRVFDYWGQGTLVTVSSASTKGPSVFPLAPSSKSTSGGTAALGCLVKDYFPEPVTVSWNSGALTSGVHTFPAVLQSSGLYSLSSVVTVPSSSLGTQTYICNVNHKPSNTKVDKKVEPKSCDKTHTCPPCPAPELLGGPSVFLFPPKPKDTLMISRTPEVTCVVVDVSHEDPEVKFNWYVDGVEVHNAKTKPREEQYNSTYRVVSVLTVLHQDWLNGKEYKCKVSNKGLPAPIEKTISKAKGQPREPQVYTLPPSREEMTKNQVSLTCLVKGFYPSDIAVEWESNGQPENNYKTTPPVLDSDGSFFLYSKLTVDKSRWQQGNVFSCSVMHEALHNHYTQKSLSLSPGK
light: B1 light
notes: as for B1
B12: H268N (antibody, human IgG1, kappa)
heavy: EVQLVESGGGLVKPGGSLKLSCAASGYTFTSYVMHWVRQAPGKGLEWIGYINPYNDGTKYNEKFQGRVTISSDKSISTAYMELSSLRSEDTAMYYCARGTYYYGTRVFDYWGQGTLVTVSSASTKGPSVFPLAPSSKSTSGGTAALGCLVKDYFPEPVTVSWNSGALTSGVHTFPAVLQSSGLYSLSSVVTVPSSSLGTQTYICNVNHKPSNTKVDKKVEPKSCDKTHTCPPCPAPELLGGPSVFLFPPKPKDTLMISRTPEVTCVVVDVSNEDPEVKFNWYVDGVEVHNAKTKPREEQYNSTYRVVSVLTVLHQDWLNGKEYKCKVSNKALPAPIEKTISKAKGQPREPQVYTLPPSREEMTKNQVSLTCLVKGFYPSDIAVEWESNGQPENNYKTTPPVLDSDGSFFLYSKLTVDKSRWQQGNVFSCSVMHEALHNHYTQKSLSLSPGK
light: B1 light
notes: as for B1
B13: S239N (antibody, human IgG1, kappa)
heavy: not shown
light: B1 light
notes: as for B1

target: T1, mFcγRIIb; assay: SPR

Row | Binder | Fold vs WT IgG1 (Kd) | Fold vs WT IgG1 (off-rate)
1 | B1 | 1.86 fold | 4.1 fold
2 | B2 | 1.11 fold | 2.63 fold
3 | B3 | – | 2.1 fold
4 | B4 | – | 0.833 fold
5 | B5 | – | 1.41 fold
6 | B6 | – | 1.42 fold
7 | B7 | – | 0.881 fold
8 | B8 | – | 0.877 fold
9 | B9 | – | 1.74 fold
10 | B10 | 0.902 fold | 0.968 fold
11 | B11 | – | 1.45 fold
12 | B12 | – | 1.6 fold
13 | B13 | – | 0.61 fold

target: T7, cynoFcγRIIIa (Macaca fascicularis, UniProt Q8SPW2); assay: SPR
T7 construct: extracellular region, C-terminal His- and GST-tag; also called cynomolgus monkey FcγRIIIa
T7 sequence (Q8SPW2 17-208): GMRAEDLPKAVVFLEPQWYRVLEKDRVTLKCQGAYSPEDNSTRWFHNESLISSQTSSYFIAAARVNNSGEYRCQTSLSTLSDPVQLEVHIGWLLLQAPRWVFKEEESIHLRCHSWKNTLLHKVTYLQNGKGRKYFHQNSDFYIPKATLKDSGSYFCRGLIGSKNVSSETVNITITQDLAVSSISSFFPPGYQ

Row | Binder | Fold vs WT IgG1 (Kd) | Fold vs WT IgG1 (off-rate)
14 | B1 | 0.783 fold | 0.515 fold
15 | B2 | 4.24 fold | 1.65 fold
16 | B3 | – | 0.437 fold
17 | B4 | – | 0.636 fold
18 | B5 | – | 0.271 fold
19 | B6 | – | 0.979 fold
20 | B7 | – | 0.124 fold
21 | B8 | – | 0.983 fold
22 | B9 | – | 0.622 fold
23 | B10 | 5.33 fold | –
24 | B11 | – | 0.443 fold
25 | B12 | – | 0.99 fold
26 | B13 | – | 1.15 fold

target: T2, cynoFcγRIIb; assay: SPR

Row | Binder | Fold vs WT IgG1 (Kd) | Fold vs WT IgG1 (off-rate)
27 | B1 | 1.16 fold | 1.15 fold
28 | B2 | 1.48 fold | 3.94 fold
29 | B3 | – | 0.831 fold
30 | B4 | – | 0.648 fold
31 | B5 | – | 0.714 fold
32 | B6 | – | 0.826 fold
33 | B7 | – | 0.367 fold
34 | B8 | – | 0.864 fold
35 | B9 | – | 0.401 fold
36 | B10 | 1.86 fold | 1.96 fold
37 | B11 | – | 0.903 fold
38 | B12 | – | 1.34 fold
39 | B13 | – | 0.66 fold

Target: T3, mFcγRIV
Assay: SPR

Row | Binder | Fold vs WT IgG1 (Kd) | Fold vs WT IgG1 (off-rate)
40 | B1 | 0.315 fold | 0.876 fold
41 | B2 | 0.47 fold | 1.45 fold
42 | B3 | – | 0.588 fold
43 | B4 | – | 0.526 fold
44 | B5 | – | 0.291 fold
45 | B6 | – | 1.19 fold
46 | B7 | – | 0.454 fold
47 | B8 | – | 1.08 fold
48 | B9 | – | 0.711 fold
49 | B10 | 0.598 fold | –
50 | B11 | – | 1.23 fold
51 | B12 | – | 1.02 fold
52 | B13 | – | 1.07 fold

target: T4, human FcγRIIa (131R), His- and …; assay: SPR

Row | Binder | Fold vs WT IgG1 | Kd | binding result
53 | B1 | 1.6 fold | 536 nM | –
54 | B2 | 4.19 fold | 205 nM | –
55 | B3 | 74 fold | 11.6 nM | –
56 | B4 | 0.307 fold | 2790 nM | –
57 | B5 | – | – | no binding
58 | B6 | – | – | no binding
59 | B8 | 1.58 fold | 544 nM | –
60 | B9 | 0.853 fold | 1010 nM | –
61 | B11 | 0.319 fold | 2690 nM | –
62 | B12 | 1.79 fold | 481 nM | –
63 | B13 | 0.867 fold | 990 nM | –

target: T8, human FcγRI receptor protein (R&D Systems) (human, UniProt P12314 16-288); assay: SPR
T8 construct: also called soluble FcγRI; solFcγRI

Row | Binder | Fold vs WT IgG1 | Kd
64 | B1 | 2.06 fold | 0.16 nM
65 | B2 | 2.35 fold | 0.14 nM

target: T9, human FcγRIIIa (158V), His- and GST-tagged (human, UniProt P08637 17-208); assay: SPR
T9 construct: also called V158 FcγRIIIa; VIIIa; not shown: 6xHis and GST tags of the pTT5 vector
T9 sequence (P08637 17-208 F176V): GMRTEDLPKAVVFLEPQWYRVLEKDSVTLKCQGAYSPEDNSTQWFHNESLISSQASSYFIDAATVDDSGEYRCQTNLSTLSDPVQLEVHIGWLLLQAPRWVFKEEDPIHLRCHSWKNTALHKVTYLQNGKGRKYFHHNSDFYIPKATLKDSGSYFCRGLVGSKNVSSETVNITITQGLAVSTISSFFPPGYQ

Row | Binder | Fold vs WT IgG1 | Kd
66 | B1 | 0.398 fold | 481 nM
67 | B2 | 3.08 fold | 62.2 nM

target: T5, human FcγRIIb receptor protein (R&D …); assay: SPR

Row | Binder | Fold vs WT IgG1 | Kd | binding result
68 | B1 | 1.33 fold | 1100 nM | –
69 | B2 | 3.06 fold | 480 nM | –
70 | B3 | 53.4 fold | 27.5 nM | –
71 | B4 | 0.417 fold | 3520 nM | –
72 | B5 | – | – | no binding
73 | B6 | – | – | no binding
74 | B7 | 12.1 fold | 121 nM | –
75 | B8 | – | – | no binding
76 | B9 | 0.729 fold | 2010 nM | –
77 | B10 | 14.2 fold | 103 nM | –
78 | B11 | 0.353 fold | 4160 nM | –
79 | B12 | 1.17 fold | 1250 nM | –
80 | B13 | 1.45 fold | 1010 nM | –

target: T6, human FcγRIIa (131H), His- and …; assay: SPR

Row | Binder | Fold vs WT IgG1 | Kd
81 | B1 | 0.733 fold | 882 nM
82 | B2 | 1.89 fold | 342 nM
